Source: the Human Domainome abundance scans (Beltran et al. 2025)
± gives the uncertainty stated by the source.

B1: COUP transcription factor 1, residues 83 to 159; numbered along this chain, P10589 (parent)
chain: HIECVVCGDKSSGKHYGQFTCEGCKSFFKRSVRRNLTYTCRANRNCPIDQHHRNQCQYCRLKKCLKVGMRREAVQRG

Variants of: B1
Assay: abundance fitness (aPCA) (normalised: wild type 0, dead -1); higher = more abundant; growth selection in yeast, the domain comes from the species named
Conditions: Homo sapiens

Row | Variant | abundance fitness
1 | HIECVVCGDKSSGKHYGQFTCEDCKSFFKRSVRRNLTYTCRANRNCPIDQHHRNQCQYCRLKKCLKVGMRREAVQRG | 0.418 ± 0.14
2 | HIECVVCGDKSSGKHYGQFTCEGCKSFFKRSVRRNLTYCCRANRNCPIDQHHRNQCQYCRLKKCLKVGMRREAVQRG | -0.244 ± 0.29
3 | HIECVVCGDKSSGKHYGQFTCEGCKSFFKRSVRRNLTYFCRANRNCPIDQHHRNQCQYCRLKKCLKVGMRREAVQRG | 0.23 ± 0.28
4 | HIECVVCGDKSSGKHYGQFTCMGCKSFFKRSVRRNLTYTCRANRNCPIDQHHRNQCQYCRLKKCLKVGMRREAVQRG | 0.01 ± 0.084
5 | HIECVVCGDKSSGKHYGQFTCFGCKSFFKRSVRRNLTYTCRANRNCPIDQHHRNQCQYCRLKKCLKVGMRREAVQRG | -0.226 ± 0.17
6 | HIECVVCGDKSSGKHYGQFTCEGCKSFFKRSVRRNLTYTCRANRNCPIDQIHRNQCQYCRLKKCLKVGMRREAVQRG | -0.244 ± 0.13
7 | HIECVVCGDKSSGKHYGQFTCEGCKSFFKRSVRRNLTYTCRANRNCPIDQCHRNQCQYCRLKKCLKVGMRREAVQRG | -0.118 ± 0.064
8 | HIECVVCGDKSSGKHYGQFTCEGCKSFFKRSVRRNLTYTCRANRNCPIDQTHRNQCQYCRLKKCLKVGMRREAVQRG | -0.091 ± 0.063
9 | HIECVVCGDKSSGKHYGQFTCEGCKSFFKRSVRRNLTYTCRANRNAPIDQHHRNQCQYCRLKKCLKVGMRREAVQRG | -0.519 ± 0.085
10 | HIECVVCGDKSSGKHYGQFTCEGCKSFFKRSVRRNLTYTCRANRNRPIDQHHRNQCQYCRLKKCLKVGMRREAVQRG | -0.602 ± 0.072
11 | HIECVVCGDKSSGKHYGQFTCEGCKSFFKRSVRRNLTYTCRANRNCPHDQHHRNQCQYCRLKKCLKVGMRREAVQRG | -0.93 ± 0.22
12 | HIECVVCGDKSSGKHYGQFTCEGCKSFFKRSVRRNLTYTCRANRNCPWDQHHRNQCQYCRLKKCLKVGMRREAVQRG | -0.283 ± 0.063
13 | HIECFVCGDKSSGKHYGQFTCEGCKSFFKRSVRRNLTYTCRANRNCPIDQHHRNQCQYCRLKKCLKVGMRREAVQRG | 0.199 ± 0.16
14 | HIECVVCGDKSSGKHYGQFTCEGCKSFFHRSVRRNLTYTCRANRNCPIDQHHRNQCQYCRLKKCLKVGMRREAVQRG | -0.048 ± 0.12
15 | HIECVVCGDKSSGKHYGQFTCEGCKSFFKRSVRRNLTYTCRANRNCPIDQHHRNQCQYCRLKKCLKVGMKREAVQRG | 0.153 ± 0.05
16 | HIECVVCGDKSSGKHYGQFTCEGCKSFFKRSVRRNLTYTCRANRNCPIDQHHRYQCQYCRLKKCLKVGMRREAVQRG | -0.104 ± 0.088
17 | HIECVVCGDKSSGKHYGQFTCEGCKSFFKRSVRRNLTYTCRANRNCPIDQHHRNQCQYCALKKCLKVGMRREAVQRG | -0.088 ± 0.038
18 | HIECVVCGDKSSGKHYGQFTCEGCKSFFKRSVRRNLTYTCRANRNCPIDQHHRNQCQYCNLKKCLKVGMRREAVQRG | -0.416 ± 0.1

Row | Variant | abundance fitness
19 | HIECVSCGDKSSGKHYGQFTCEGCKSFFKRSVRRNLTYTCRANRNCPIDQHHRNQCQYCRLKKCLKVGMRREAVQRG | -0.819 ± 0.14
20 | HIECVVCGDKSSGKHYGYFTCEGCKSFFKRSVRRNLTYTCRANRNCPIDQHHRNQCQYCRLKKCLKVGMRREAVQRG | -0.389 ± 0.26
21 | HIECVVCGDKSSGKHYGQFTCEGCKSFFKRSVRRNLTYTCRANRNCPIDQHHRNQCQYCRLKKCLKVGMRRQAVQRG | -0.319 ± 0.055
22 | HIECVVCGDKSSGKHYGQFTCEGCKSFFKRSVRRNLTYTCRANRNCPICQHHRNQCQYCRLKKCLKVGMRREAVQRG | -0.726 ± 0.13
23 | HIECVVCGDKSSGKHYGQFTCEGCKSFFKRSVRRNLTYTCRANRNCPIDQHRRNQCQYCRLKKCLKVGMRREAVQRG | -0.154 ± 0.042
24 | HIECVVCGDKSSGKHYGQFTCEGCKSFFKRSVRRNLTYTCRANRNCPIDQHIRNQCQYCRLKKCLKVGMRREAVQRG | 0.07 ± 0.047
25 | HRECVVCGDKSSGKHYGQFTCEGCKSFFKRSVRRNLTYTCRANRNCPIDQHHRNQCQYCRLKKCLKVGMRREAVQRG | -0.413 ± 0.094
26 | HQECVVCGDKSSGKHYGQFTCEGCKSFFKRSVRRNLTYTCRANRNCPIDQHHRNQCQYCRLKKCLKVGMRREAVQRG | -0.714 ± 0.41
27 | HIECVVCGDKSSGKHYGQFTCEGCKSLFKRSVRRNLTYTCRANRNCPIDQHHRNQCQYCRLKKCLKVGMRREAVQRG | -0.819 ± 0.15
28 | HIECVVCGDKSSGKHYGQFTCEGCVSFFKRSVRRNLTYTCRANRNCPIDQHHRNQCQYCRLKKCLKVGMRREAVQRG | 0.025 ± 0.045
29 | HIECVVCGDKSSGKHYGQFTCEGCLSFFKRSVRRNLTYTCRANRNCPIDQHHRNQCQYCRLKKCLKVGMRREAVQRG | -0.031 ± 0.058
30 | HIECVVCGDKSSGKHYGQFTCEGCKSFFKRSVRRNLTYTCDANRNCPIDQHHRNQCQYCRLKKCLKVGMRREAVQRG | 0.085 ± 0.12
31 | HIECVVCGDKSSGKAYGQFTCEGCKSFFKRSVRRNLTYTCRANRNCPIDQHHRNQCQYCRLKKCLKVGMRREAVQRG | -0.029 ± 0.098
32 | HIECVVCVDKSSGKHYGQFTCEGCKSFFKRSVRRNLTYTCRANRNCPIDQHHRNQCQYCRLKKCLKVGMRREAVQRG | -0.791 ± 0.17
33 | HIECVVCGDKSSGKHYGQFTCEGCKSFMKRSVRRNLTYTCRANRNCPIDQHHRNQCQYCRLKKCLKVGMRREAVQRG | -0.591 ± 0.15
34 | HIECVVCGDKTSGKHYGQFTCEGCKSFFKRSVRRNLTYTCRANRNCPIDQHHRNQCQYCRLKKCLKVGMRREAVQRG | -0.044 ± 0.082
35 | HIECVVCGDKDSGKHYGQFTCEGCKSFFKRSVRRNLTYTCRANRNCPIDQHHRNQCQYCRLKKCLKVGMRREAVQRG | -0.28 ± 0.15
